Test results as given in patent publication US20220370630A1, “TRANSMUCOSAL DELIVERY SYSTEM FOR PHARMACEUTICAL ACTIVE INGREDIENT TO SUBMUCOSAL TISSUE OF BLADDER” (SEIKAGAKU CORPORATION, priority 2019, published 2022).

Tests used:
[1] = Evaluation using rat 2: concentration of TA in the bladder after administration to the lumen of the bladder, LC/MS/MS; type: in vivo; conditions: bladder homogenate on day 7 after administration; TA dose 0.8 mg/animal into the bladder; hydrochloric acid-pretreated rat; read-out: Concentration of API (TA)
Protocol: In both Example and Comparative Example, the dose of TA was set to 0.8 mg/animal.
The pretreatment was performed in the same manner as in the evaluation 1.
One day after the pretreatment, 0.2 mL of each test substance was transurethrally administered into the bladder using a catheter (PE50) under isoflurane inhalation anesthesia and allowed to stay there for 30 minutes.
Seven days after administering the test substance, the animal was laparotomized under isoflurane inhalation anesthesia and exsanguinated and euthanized by cutting the abdominal aorta, and then, the bladder was collected. The bladder was homogenized in a mixed solution of methanol/buffer solution (10 mmol/L ammonium formate buffer solution (pH 6.0):methanol=3:2 (v/v)), and a measurement sample was prepared so that the tissue concentration was 0.05 g/mL.
Subsequently, the amount of TA in the measurement sample was quantitatively determined by an LC/MS/MS analysis under the following conditions using triamcinolone-6-d1 acetonide-d6 as an internal standard substance.

[2] = Release test: release ratio of API from the derivative in phosphate buffer solution pH 7.4 at 36° C., HPLC; type: physicochemical; conditions: phosphate buffer pH 7.4, 36° C.; for Release ratio of API: 5 mg/10 mL; for Release rate: slope of release ratio against time
Protocol: In Examples pertaining to a release test, a release ratio of a pharmaceutical active ingredient (API) from a chondroitin sulfate derivative and a hyaluronic acid derivative, each of which was not fluorescently labeled was evaluated as follows. […] The release ratio was calculated based on the ratio of peak areas of HPLC corresponding to the amount of API in the derivative and the amount of released API using a size-exclusion chromatography column (TSKgel α, manufactured by Tosoh Corporation). Release ratio (%)=peak area of released API/(peak area of API in each derivative+peak area of released API)×100 Also with respect to the hyaluronic acid derivatives of Comparative Examples 2 to 3, evaluation was performed in the same manner as for Examples.

Molecule | concentration at 7 days [1] [ng/g] | Release ratio of API ([2]; elapsed time 0 days) [%] | Release ratio of API ([2]; elapsed time 1 day) [%] | Release ratio of API ([2]; elapsed time 2 days) [%] | Release ratio of API ([2]; elapsed time 3 days) [%] | Release ratio of API ([2]; elapsed time 4 days) [%] | Release ratio of API ([2]; elapsed time 5 days) [%] | Release ratio of API ([2]; elapsed time 6 days) [%] | Release ratio of API ([2]; elapsed time 7 days) [%] | Release of API (result in words) ([2]; 1 week) | Release rate [2] [%/day]
CC1(C)O[C@@H]2C[C@H]3[C@@H]4CCC5=CC(=O)C=C[C@]5(C)[C@@]4(F)[C@@H](O)C[C@]3(C)[C@]2(C(=O)CO)O1 [TA, triamcinolone acetonide] | 4.09 | – | – | – | – | – | – | – | – | – | –
3-Aminopropyl Cinnamate-Introduced HA [HA-CIN-conjugate, reference compound] | – | 0.00 | 0.00 | 0.00 | 0.00 | 0.00 | 0.00 | 0.00 | 0.00 | release of cinnamic acid was not observed | 0.00
2-Aminoethyl-Probenecid-Introduced CS [CS-PRO-conjugate] | – | 0.31 | 0.83 | 1.43 | 2.13 | 2.91 | 3.63 | 4.56 | 5.29 | – | 0.72
2-Aminoethyl-Dehydrocholate-Introduced CS [CS-DEH-conjugate] | – | 0.45 | 0.53 | 0.52 | 0.66 | 0.65 | 0.78 | 1.29 | 1.42 | – | 0.14
β-alanyl-hydroxyzine-introduced CS [CS-HYD-conjugate] | – | 0.00 | 0.65 | 1.48 | 2.38 | 3.35 | 4.30 | 5.24 | 6.05 | – | 0.89
2-Aminoethyl-Diclofenac-Introduced CS [CS-DIC-conjugate] | – | 0.00 | 0.95 | 2.06 | 3.13 | 4.11 | 5.40 | 6.55 | 7.62 | – | 1.10
